Reference: PMC11073571, “Functional and in silico analysis of ATP8A2 and other P4-ATPase variants associated with human genetic diseases” (Disease Models & Mechanisms, 2024)
Numbering of substitutions follows the chain as printed. Names may count otherwise.

B1: ATP8A2-CDC50A complex (Homo sapiens) (protein)
chain: MLNGAGLDKALKMSLPRRSRIRSSVGPVRSSLGYKKAEDEMSRATSVGDQLEAPARTIYLNQPHLNKFRDNQISTAKYSVLTFLPRFLYEQIRRAANAFFLFIALLQQIPDVSPTGRYTTLVPLIIILTIAGIKEIVEDFKRHKADNAVNKKKTIVLRNGMWHTIMWKEVAVGDIVKVVNGQYLPADVVLLSSSEPQAMCYVETANLDGETNLKIRQGLSHTADMQTREVLMKLSGTIECEGPNRHLYDFTGNLNLDGKSLVALGPDQILLRGTQLRNTQWVFGIVVYTGHDTKLMQNSTKAPLKRSNVEKVTNVQILVLFGILLVMALVSSAGALYWNRSHGEKNWYIKKMDTTSDNFGYNLLTFIILYNNLIPISLLVTLEVVKYTQALFINWDTDMYYIGNDTPAMARTSNLNEELGQVKYLFSDKTGTLTCNIMNFKKCSIAGVTYGHFPELAREPSSDDFCRMPPPCSDSCDFDDPRLLKNIEDRHPTAPCIQEFLTLLAVCHTVVPEKDGDNIIYQASSPDEAALVKGAKKLGFVFTARTPFSVIIEAMGQEQTFGILNVLEFSSDRKRMSVIVRTPSGRLRLYCKGADNVIFERLSKDSKYMEETLCHLEYFATEGLRTLCVAYADLSENEYEEWLKVYQEASTILKDRAQRLEECYEIIEKNLLLLGATAIEDRLQAGVPETIATLLKAEIKIWVLTGDKQETAINIGYSCRLVSQNMALILLKEDSLDATRAAITQHCTDLGNLLGKENDVALIIDGHTLKYALSFEVRRSFLDLALSCKAVICCRVSPLQKSEIVDVVKKRVKAITLAIGDGANDVGMIQTAHVGVGISGNEGMQATNNSDYAIAQFSYLEKLLLVHGAWSYNRVTKCILYCFYKNVVLYIIELWFAFVNGFSGQILFERWCIGLYNVIFTALPPFTLGIFERSCTQESMLRFPQLYKITQNGEGFNTKVFWGHCINALVHSLILFWFPMKALEHDTVLTSGHATDYLFVGNIVYTYVVVTVCLKAGLETTAWTKFSHLAVWGSMLTWLVFFGIYSTIWPTIPIAPDMRGQATMVLSSAHFWLGLFLVPTACLIEDVAWRAAKHTCKKTLLEEVQELETKSRVLGKAVLRDSNGKRLNERDRLIKRLGRKTPPTLFRGSSLQQGVPHGYAFSQEEHGAVSQEEVIRAYDTTKKKSRKK
notes: heterodimer; with Cell cycle control protein 50A
B2: ATP8A2-CDC50A complex (Homo sapiens; E459D) (protein)
chain: B1 chain with E459D
notes: as for B1
B3: ATP8A2-CDC50A complex (Homo sapiens; E459Q) (protein)
chain: B1 chain with E459Q
notes: as for B1

Substrate: CCCCCCCC/C=C\CCCCCCCC(=O)OC[C@H](COP(=O)(O)OC[C@H](N)C(=O)O)OC(=O)CCCCCCC/C=C\CCCCCCCC
Test: colorimetric phosphate-release ATPase assay, Michaelis-Menten fit
Assay type: biochemical, Homo sapiens
Conditions: PS activation constant (not association constant), 5 mM ATP, DOPC:DOPS mixtures at 2.5 mg/ml total lipid, 10 mM CHAPS, 12.5 mM MgCl2, pH 7.5, 37°C

Protein	K0.5 [µM]
B1	14.3 ± 4.3
B2	19.3 ± 4.2
B3	8.4 ± 3.1
